Broadly, the EC50 (read off the curve) is the midpoint of the concentration-response curve. As a reminder, the Kd is the constant that tells how readily two partners part at equilibrium. By koff is commonly meant the first-order rate constant of dissociation. For orientation: kon means a measure of how fast the partners come together. Usually EC50 stands for the concentration at which the effect is half-maximal.

The values below come from patent US20150307617A1 (Genentech, published 2015).

Assay [1] concerns the target T1, human OX40 expressed on the cell surface (Hut78-hOX40 cells; human T cells) (human, UniProt P43489 29-277).
T1 construct: Hut78 T cell line stably transfected or retrovirally transduced with human OX40, or native OX40 on human peripheral blood T cells; also called huOX40; Hut78-OX40
T1 sequence: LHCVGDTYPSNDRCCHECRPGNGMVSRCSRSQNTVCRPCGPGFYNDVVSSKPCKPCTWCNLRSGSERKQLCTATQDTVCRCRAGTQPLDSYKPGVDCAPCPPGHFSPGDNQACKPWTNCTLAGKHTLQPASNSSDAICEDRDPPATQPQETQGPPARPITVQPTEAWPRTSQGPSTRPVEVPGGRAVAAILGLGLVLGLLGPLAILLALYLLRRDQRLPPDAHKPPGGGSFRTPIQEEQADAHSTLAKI
Briefly: flow cytometry titration of OX40L-flag on Hut78-hOX40 cells, 3-fold dilutions from 10 ug/mL, detected with anti-flag-Alexa Fluor 555. The protocol: (§1) After 30 min of incubation at 4 C, cells were washed twice in Wash Buffer (PBS/0.5% FBS/2 mM EDTA), followed by data acquisition on FACSCantoII flow cytometer (BD). Data were then analyzed by Flowjo program (TreeStar) and the mean fluorescent intensity (MFI) was captured. […] A titration of OX40L-flag binding was carried out in a similar fashion, except that OX40L-flag was titrated 3 fold down starting from 10 ug/mL.
In general terms: A flow cytometer gives signals particle by particle.

Assay [2] has as its target T1, human OX40 expressed on the cell …. As to the kind of experiment: flow cytometry competition on Hut78-hOX40 cells: OX40L-flag titrated first, then 200 ng/mL 1A7.gr.1-Alexa Fluor 647 added; readout is the MFI of 1A7.gr.1. As for the experimental part: as §1
After 30 min of incubation at 4 C, cells were washed twice in Wash Buffer, followed by data acquisition on FACSCantoII flow cytometer (BD).

The target of assay [3] is T2, Human OX40 (Sino Biological Inc) (human, UniProt P43489 29-216, limits assumed).
T2 construct: Bought soluble protein used as SPR analyte; also called huOX40
T2 sequence: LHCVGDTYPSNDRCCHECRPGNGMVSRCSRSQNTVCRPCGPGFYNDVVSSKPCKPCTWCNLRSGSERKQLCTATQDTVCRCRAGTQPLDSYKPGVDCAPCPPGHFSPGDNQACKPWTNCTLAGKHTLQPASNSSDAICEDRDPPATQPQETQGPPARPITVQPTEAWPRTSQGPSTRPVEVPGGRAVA
Briefly: SPR (Biacore), antibody captured via anti-human Fc, huOX40 analyte. The protocol:
(§2) The binding kinetics of the anti-OX40 antibodies was measured using surface plasmon resonance (SPR) on a Biacore 3000 instrument (GE Healthcare). Anti-human Fc (GE Healthcare) was immobilized on a CM5 sensor chip via amine-based coupling using manufacturer provided protocol. Anti-OX40 antibody was captured at a level of 300-400 resonance units (RU). Antibody binding was measured to human OX40 (Sino Biological Inc). Two-fold concentration series of huOX40 with a range of either 18.75 to 300 nM or 6.25 to 200 nM were used for the experiments. Sensorgrams for binding of OX40 were recorded using an injection time of 2 minutes with a flow rate of 30 μl/min, at a temperature of 25° C., and with a running buffer of 10 mM HEPES, pH 7.4, 150 mM NaCl, and 0.005% Tween 20. After injection, disassociation of the ligand from the antibody was monitored for 600 seconds in running buffer. The surface was regenerated between binding cycles with a 40 μl injection of 3 M Magnesium Chloride.
Background: SPR reads the build-up and loss of mass on a sensor chip optically.

Assay [4] has as its target T3, cynomolgus monkey OX40 on T cells (cynomolgus monkey).
T3 construct: whole, on cells; also called cynomolgus OX40
Briefly: flow cytometry, Alexa Fluor 647-labeled antibody on cynomolgus monkey T cells, assay 1. As for the experimental part: (§3) Cells were blocked with 10% human, cynomolgus monkey, rat or mouse serum respectively in PBS for 15 minutes at 4° C. and plated in a 96 well plate at the equivalent of 100 μL of whole blood per reaction.

The next assay has as its target T4, rat OX40 on T cells (rat, UniProt P15725 20-271).
T4 construct: whole, on cells
T4 sequence (looked up): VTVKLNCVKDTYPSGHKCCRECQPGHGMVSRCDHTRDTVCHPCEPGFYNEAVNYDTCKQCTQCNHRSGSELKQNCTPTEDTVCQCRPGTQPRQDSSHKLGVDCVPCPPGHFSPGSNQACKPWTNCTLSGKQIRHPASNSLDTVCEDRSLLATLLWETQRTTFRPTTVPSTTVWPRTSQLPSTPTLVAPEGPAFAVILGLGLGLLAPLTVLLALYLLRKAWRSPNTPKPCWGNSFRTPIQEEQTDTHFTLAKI
As to the kind of experiment: flow cytometry, Alexa Fluor 647-labeled antibody on peripheral blood T cells.

For another assay, the target named is T5, mouse OX40 on T cells (mouse, UniProt P47741 20-272).
T5 construct: whole, on cells
T5 sequence (looked up): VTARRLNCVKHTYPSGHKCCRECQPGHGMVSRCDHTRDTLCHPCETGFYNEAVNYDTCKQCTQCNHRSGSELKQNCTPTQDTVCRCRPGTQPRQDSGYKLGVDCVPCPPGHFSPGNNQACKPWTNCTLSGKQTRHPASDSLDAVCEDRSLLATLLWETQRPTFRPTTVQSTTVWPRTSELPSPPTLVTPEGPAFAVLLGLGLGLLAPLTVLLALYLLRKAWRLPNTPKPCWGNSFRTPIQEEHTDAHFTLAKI
Described as above.

Assay [5] deals with T3, cynomolgus monkey OX40 on T cells. As to the kind of experiment: flow cytometry, Alexa Fluor 647-labeled antibody on cynomolgus monkey T cells, assay 2. As for the experimental part:
as §3

The target is the same in assay [6]. Briefly: flow cytometry, Alexa Fluor 647-labeled antibody on cynomolgus monkey T cells, average in molar units. The protocol: as §3
The target is the same in assay [7]. As to the kind of experiment: flow cytometry, Alexa Fluor 647-labeled antibody on cynomolgus monkey T cells, average (± SD). The protocol:
as §3

Assay [8] concerns the target T2, Human OX40 (Sino Biological Inc). As to the kind of experiment: SPR (Biacore), antibody captured via anti-human Fc, huOX40 analyte. The protocol: as §2
Variants were tested by Biacore as described above to evaluate binding kinetics and in co-stimulation assays to determine biological activity.
The source holds these as a separate data set.

Residue numbers refer to the chain shown, from its start. Read-outs that look alike come from different tables or passages of the source.

B1: Human OX40L-flag (ligand, UniProt P23510 51-183, looked up)
chain: QVSHRYPRIQSIKVQFTEYKKEKGFILTSQKEDEIMKVQNNSVIINCDGFYLISLKGYFSQEVNISLHYQKDEEPLFQLKKVRSVNSLMVASLTYKDKVYLNVTTDNTSLDDFHVNGGELILIHQNPGEFCVL
notes: Made at Genentech; not shown: flag tag
Take B1: the concentration giving a half-maximal response (EC50 (read off the curve)) in assay [1] was approximately 0.2 µg/mL. Besides, the “IC50 (read off the curve)” value in assay [2] was approximately 0.2 µg/mL.

B2: 3C8.gr.DQ (antibody, V domains shown)
VH: EVQLVQSGAEVKKPGASVKVSCKASGYAFTNYLIEWVRQAPGQGLEWIGVINPGSGDQYYSEKFKGRVTLTADTSTSTAYLELSSLRSEDTAVYYCARDRLDYWGQGTLVTVSS
VL: DIQMTQSPSSLSASVGDRVTITCHASQDISSYIVWYQQKPGKSFKGLIYHGTNLEDGVPSRFSGSGSGTDFTLTISSLQPEDFATYYCVHYAQFPYTFGQGTKVEIK
notes: also called 3C8.gr.5.DQ
On to B2, for which, in assay [3], the dissociation constant Kd is 8120 pM, the dissociation rate constant (koff) was determined as 0.00309 s⁻¹ and the kon came out at 381000 M⁻¹ s⁻¹.

B3: 1A7.gr.1 (antibody, V domains shown)
VH: EVQLVQSGAEVKKPGASVKVSCKASGYTFTDSYMSWVRQAPGQGLEWIGDMYPDNGDSSYNQKFRERVTITRDTSTSTAYLELSSLRSEDTAVYYCVLAPRWYFSVWGQGTLVTVSS
VL: DIQMTQSPSSLSASVGDRVTITCRASQDISNYLNWYQQKPGKAPKLLIYYTSRLRSGVPSRFSGSGSGTDFTLTISSLQPEDFATYYCQQGHTLPPTFGQGTKVEIK
notes: human IgG1; 125I-labeled (radioligand assay) or Alexa Fluor 647-labeled (flow cytometry) in some assays; also called mab 1A7.gr.1; MOXR0916
As to B3, the EC50 worked out at 0.143 µg/mL in assay [4], 0.142 µg/mL in assay [5], 946 pM in [6] and 0.142 µg/mL in [7]. In addition, the binding result with rat OX40 on T cells and with mouse OX40 on T cells was “no binding (tested: titrated from 9 µg/mL)” in each case.

B4: 1D2.gr.2 (antibody, V domains shown)
VH: EVQLVESGPGLVKPSETLSLTCTVSGFSLTDYGVLWIRQPPGKGLEWIGMIWSGGTTDYNAAFISRVTISKDTSKNQVSLKLSSVTAADTAVYYCVREEMDYWGQGTLVTVSS
VL: B3 VL with Y32F, R55H, H92N, P96W
notes: human Fc
For B4, in assay [3], binding was characterised by a dissociation constant (Kd) of 55900 pM, the koff is 0.0178 s⁻¹ and the kon amounted to 319000 M⁻¹ s⁻¹.

B5: 1A7.gr.2 (antibody, V domains shown)
VH: B3 VH with R72V
VL: B3 VL
notes: human Fc (captured by anti-human Fc)
In assay [3], B5 registered an equilibrium dissociation constant (Kd) of 524 pM, a koff of 0.000233 s⁻¹ and a kon of 444000 M⁻¹ s⁻¹.

B6: 1A7.gr.SGDS (antibody, V domains shown)
VH: B3 VH with N55S
VL: B3 VL
Regarding B6, in assay [8], the dissociation constant Kd turned out to be 993 pM, the “fold loss of binding affinity (against 1A7.gr.1)” value came to 2 fold, the dissociation rate constant (koff) is 0.000228 s⁻¹ and the on-rate constant (kon) was determined as 230000 M⁻¹ s⁻¹.

B7: 1D2.gr.1 (antibody, V domains shown)
VH: B4 VH with K71V, V78F
VL: B3 VL with Y32F, R55H, H92N, P96W
notes: human Fc
On to B7, for which the binding result in assay [3] is “binds”.

B8: 1A7.gr.NADA (antibody, V domains shown)
VH: B3 VH with G56A, S58A
VL: B3 VL
With B8, in assay [8], the dissociation constant (Kd) was 355 pM, the off-rate constant (koff) was found to be 0.000108 s⁻¹ and the kon worked out at 304000 M⁻¹ s⁻¹.

B9: 1D2.gr.3 (antibody, V domains shown)
VH: B4 VH with I37V, I48L, V67L
VL: B3 VL with Y32F, R55H, H92N, P96W
notes: human Fc
In assay [3], B9 registered a Kd of 59500 pM, a koff of 0.0163 s⁻¹ and a kon of 273000 M⁻¹ s⁻¹.

B10: 1A7.gr.DANADA (antibody, V domains shown)
VH: B3 VH with S32A, G56A, S58A
VL: B3 VL
In assay [8], B10 gave an equilibrium dissociation constant (Kd) of 557 pM, a koff of 0.000215 s⁻¹ and an association rate constant (kon) of 387000 M⁻¹ s⁻¹.

B11: 1A7.gr.DA (antibody, V domains shown)
VH: B3 VH with S32A
VL: B3 VL
On to B11, for which, in assay [8], binding was put at a Kd of 259 pM, the koff is 8.32e-05 s⁻¹ and the on-rate constant (kon) is 321000 M⁻¹ s⁻¹.

B12: 1A7.gr.NADS (antibody, V domains shown)
VH: B3 VH with G56A
VL: B3 VL
B12: in assay [8], the affinity, expressed as Kd, was 442 pM; the off-rate (koff) worked out at 0.000121 s⁻¹; the kon turned out to be 275000 M⁻¹ s⁻¹.

B13: 1A7.gr.NGSS (antibody, V domains shown)
VH: B3 VH with D57S
VL: B3 VL
B13: in assay [8], binding was put at a Kd of 311 pM, the koff came to 0.000108 s⁻¹ and the kon came out at 349000 M⁻¹ s⁻¹.
